These results are taken from US20220047684A1, “ENZYMES AND METHODS FOR PREVENTING AND TREATING […] IN ANIMALS” (Ecto Development Corporation, priority 2020, published 2022).

The subject of one data set is scuds (Hyalella azteca). In words: Scud bioassay: scuds exposed to permethrin with or without enzyme, kill counts. In kind it is in vivo. Particulars: scuds exposed to permethrin plus degrading enzyme versus permethrin alone. As to the method: A standard of permethrin (CAS Number […]) was prepared and analyzed by HPLC as a control, then different concentrations of enzymatic solution were added to the standard to find an effective concentration (of pPytH2) needed to degrade the permethrin. After degradation was confirmed through HPLC analysis by the qualification and quantitation of permethrin hydrolysis byproducts, a bioassay was performed with crustaceans (scuds), who are also highly sensitive to pyrethroid toxicity. In the bioassay, scuds were exposed to two different environments. Permethrin was added to the first environment to get a scud kill count without the presence of the enzyme as a control and the next environment was evaluated by adding both permethrin and the degrading enzyme to the scud environment and kill counts were compared.
The next step was to test the enzymatic hydrolysis of permethrin in feline blood (cat serum). […] After the cat serum control was analyzed three different concentrations of the enzyme were introduced to the cat serum control and then analyzed by HPLC. […]
• 37 degree C. • 18 hr • Shanking 1000 rpm Transferred 20 μL rxn mix [4 μg] to 100 mL [containing 10 scuds] At time, 24 h and 48 h the ten scuds were scored: A=Alive and Moving actively BA=Barely Alive—Difficulty swimming away; only legs are moving D=Dead—Not moving at all The results of which are shown in FIGS. 8 and 9.

The nature of data set [1]: Fenpropathrin degradation, HPLC. In kind it is biochemical. Particulars: 20 ppm fenpropathrin; 15 minutes at 37 C with shaking. As to the method:
1000 ppm fenpropathrin was diluted to 5 point curve which was able to detect on HPLC the gradient of 20% water and 80% using the instrument method described above for permethrin. 20 ppm of […] was placed in […] with 10 μL […] and reacted for 15 minutes at 37 C with shaking. HPLC was run on the sample after being diluted 1:1 MeOH using instrument method described above for permethrin. A 90% degradation of fenpropathrin was detected with PytH2.

B1: E3: carboxylesterase PytH2 (pytH) from Sphingobium wenxiniae, amino acid SEQ. ID No. 3, DNA SEQ. ID No. 6; recombinant, His-tagged (protein, listed as Sphingobium wenxiniae)
chain: MTVTDIILIHGALNRGACYDAVVPLLEARGYRVHAPDLTGHTPGDGGHLSVVDMEHYTRPVADILARAEGQSILLGHSLGGASISWLAQHHYDKVAGLIYLTAVLTAPGITPETFVLPGEPNRGTPHALDLIQPVDEGRGLQADFSRLERLREVFMGDYPGEGMPPAEQFIQTQSTVPFGTPNPMEGRALEIPRLYEALDDVVIPIAVQRQMQKEFPGPVAVVSLPASHAPYYSMPERLAEAIADFADAPAEYRQTATKAGPDRPAGADGGRADRADLP
modifications: His tag
notes: ID No. 6; recombinant, His-tagged
As for B1, the “effect on permethrin in scud bioassay” value in the data set on scuds (Hyalella azteca) is “hydrolyzed the toxic permethrin molecule and degraded permethrin”. In data set [1], this molecule registered a degradation of fenpropathrin of 90%.
